{"source": "patent US7060495", "about": "(AVENTIS PHARMA DEUTSCHLAND, dated 2006)", "key": {"[1]": {"target": "T1, carcinoembryonic antigen (CEA) (UniProt P06731 35-685, limits assumed)", "T1 construct": "Tumor-associated antigen coated on microtiter plates in the specificity enzyme activity test", "T1 sequence (looked up)": "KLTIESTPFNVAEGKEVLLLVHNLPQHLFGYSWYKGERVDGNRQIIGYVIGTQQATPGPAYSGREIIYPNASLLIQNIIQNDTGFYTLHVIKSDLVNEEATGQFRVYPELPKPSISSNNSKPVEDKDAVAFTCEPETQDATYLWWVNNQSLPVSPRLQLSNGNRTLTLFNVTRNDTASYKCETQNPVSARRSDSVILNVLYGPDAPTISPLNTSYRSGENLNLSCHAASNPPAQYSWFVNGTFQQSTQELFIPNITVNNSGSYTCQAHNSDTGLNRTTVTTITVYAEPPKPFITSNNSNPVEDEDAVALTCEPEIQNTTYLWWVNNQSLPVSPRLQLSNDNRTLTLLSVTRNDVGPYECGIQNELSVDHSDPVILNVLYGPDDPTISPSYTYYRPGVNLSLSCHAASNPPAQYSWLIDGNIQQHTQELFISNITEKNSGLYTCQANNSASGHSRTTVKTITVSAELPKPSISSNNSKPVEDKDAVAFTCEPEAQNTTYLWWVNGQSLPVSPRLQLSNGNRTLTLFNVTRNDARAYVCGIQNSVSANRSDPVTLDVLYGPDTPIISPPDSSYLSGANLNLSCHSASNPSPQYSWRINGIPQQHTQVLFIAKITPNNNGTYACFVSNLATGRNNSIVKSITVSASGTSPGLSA", "assay": "specificity enzyme activity test (refers to Example 5)", "description": "(§1) The test determines the liberation of 4-methylumbelliferone from 4-methylumbelliferyl β-glucuronide by the β-glucuronidase portion of the fusion protein after the fusion protein has been bound via the sFv portion to an antigen. The measured fluorescence values are reported as relative fluorescence units (FU)."}, "[2]": {"target": "T2, polymorphic epithelial mucin (PEM) (UniProt P15941 24-1097, limits assumed)", "T2 construct": "Control antigen in the specificity enzyme activity test", "T2 sequence (P15941 24-1097 limits assumed)": "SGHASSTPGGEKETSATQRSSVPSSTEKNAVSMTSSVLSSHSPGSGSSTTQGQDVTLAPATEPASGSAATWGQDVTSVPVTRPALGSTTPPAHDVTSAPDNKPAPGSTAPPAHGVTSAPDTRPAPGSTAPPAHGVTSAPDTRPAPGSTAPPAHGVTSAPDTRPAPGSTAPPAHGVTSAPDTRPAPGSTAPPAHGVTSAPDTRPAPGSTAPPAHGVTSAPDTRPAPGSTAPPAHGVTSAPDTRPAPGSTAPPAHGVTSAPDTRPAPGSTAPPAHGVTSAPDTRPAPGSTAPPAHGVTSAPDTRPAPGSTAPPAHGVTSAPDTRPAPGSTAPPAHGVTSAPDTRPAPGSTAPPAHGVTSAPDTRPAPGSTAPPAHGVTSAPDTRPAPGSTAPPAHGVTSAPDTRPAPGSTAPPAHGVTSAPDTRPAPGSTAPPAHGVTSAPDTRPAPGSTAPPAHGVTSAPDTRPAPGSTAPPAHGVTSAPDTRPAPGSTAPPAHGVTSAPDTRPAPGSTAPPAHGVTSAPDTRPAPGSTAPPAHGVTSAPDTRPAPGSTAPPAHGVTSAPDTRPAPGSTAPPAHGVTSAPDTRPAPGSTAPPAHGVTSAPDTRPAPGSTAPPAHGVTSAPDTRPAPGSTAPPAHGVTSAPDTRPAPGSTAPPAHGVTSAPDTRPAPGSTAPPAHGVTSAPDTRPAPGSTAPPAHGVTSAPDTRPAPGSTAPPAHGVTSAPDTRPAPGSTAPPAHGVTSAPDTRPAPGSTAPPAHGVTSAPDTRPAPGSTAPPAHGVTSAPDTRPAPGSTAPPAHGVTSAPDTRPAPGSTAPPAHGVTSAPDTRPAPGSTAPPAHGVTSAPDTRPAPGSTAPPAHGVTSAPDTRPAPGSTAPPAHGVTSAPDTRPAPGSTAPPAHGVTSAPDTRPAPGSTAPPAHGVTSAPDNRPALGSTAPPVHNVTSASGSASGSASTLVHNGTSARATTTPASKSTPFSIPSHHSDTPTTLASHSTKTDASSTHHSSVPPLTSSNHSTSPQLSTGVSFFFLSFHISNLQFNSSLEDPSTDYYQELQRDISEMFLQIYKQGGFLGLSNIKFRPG", "assay": "specificity enzyme activity test: antigen-coated plate, bound fusion protein detected by its β-glucuronidase activity on 4-methylumbelliferyl β-glucuronide", "description": "as §1"}}}
{"binder": "sFv-huβ-Gluc fusion protein (humanized sFv 431/26 against CEA linked via a hinge to human β-glucuronidase, expressed in BHK cells) (other, glycosylated (galactose, mannose and other carbohydrates, Table 2), scFv-enzyme fusion) QVQLQESGPGLVRPSQTLSLTCTVSGFTISSGYSWHWVRQPPGRGLEWIGYIQYSGITNYNPSLKSRVTMLVDTSKNQFSLRLSSVTAADTAVYYCAREDYDYHWYFDVWGQGTTVTVSSGGGGSGGGGSGGGGSDIQLTQSPSSLSASVGDRVTITCSTSSSVSYMHWYQQKPGKAPKLLIYSTSNLASGVPSRFSGSGSGTDFTFTISSLQPEDIATYYCHQWSSYPTFGQGTKLEIKELKTPLGDTTHTCPRCPAAAAVQGGMLYPQESPSRECKELDGLWSFRADFSDNRRRGFEEQWYRRPLWESGPTVDMPVPSSFNDISQDWRLRHFVGWVWYEREVILPERWTQDLRTRVVLRIGSAHSYAIVWVNGVDTLEHEGGYLPFEADISNLVQVGPLPSRLRITIAINNTLTPTTLPPGTIQYLTDTSKYPKGYFVQNTYFDFFNYAGLQRSVLLYTTPTTYIDDITVTTSVEQDSGLVNYQISVKGSNLFKLEVRLLDAENKVVANGTGTQGQLKVPGVSLWWPYLMHERPAYLYSLEVQLTAQTSLGPVSDFYTLPVGIRTVAVTKSQFLINGKPFYFHGVNKHEDADIRGKGFDWPLLVKDFNLLRWLGANAFRTSHYPYAEEVMQMCDRYGIVVIDECPGVGLALPQFFNNVSLHHHMQVMEEVVRRDKNHPAVVMWSVANEPASHLESAGYYLKMVIAHTKSLDPSRPVTFVSNSNYAADKGAPYVDVICLNSYYSWYHDYGHLELIQLQLATQFENWYKKYQKPIIQSEYGAETIAGFHQDPPLMFTEEYQKSLLEQYHLGLDQKRRKYVVGELIWNFADFMTEQSPTRVLGNKKGIFTRQRQPKSAAFLLRERYWKIANETRYPHSVAKSQCLENSPFT", "values": [{"measurement": "binding result", "setting": "[1]", "value": "binds"}, {"measurement": "binding result", "setting": "[2]", "value": "no binding"}]}
